Laboratory results from patent US12503443B2, “Process-scale synthesis of a plasma kallikrein inhibitor” (BioCryst Pharmaceuticals, Inc., priority 2019, dated 2025).

Experiments:
[1] = test system: patients with hereditary angioedema (HAE); details: human, in vivo; cited from earlier work
human plasma kallikrein = human plasma kallikrein (Homo sapiens, UniProt P03952); test: in vitro biochemical assay measuring inhibition of human plasma kallikrein activity; details: protocols and results in WO 2015/134998 and US 2017/0073314 A1
Method: Compound I was assayed in an in vitro biochemical assay measuring inhibition of human plasma kallikrein activity. Experimental protocols and results of the assays are found in WO 2015/134998 and U.S. Patent Application Publication No. 2017/0073314 A1 (both incorporated by reference).

rat models of arthritis = details: cited from earlier work
[2] = test system: mouse model of middle cerebral artery occlusion (MCAO); details: cited from earlier work
[3] = test system: lipopolysaccharide (LPS)- or bacterial-induced sepsis in animals; details: cited from earlier work
sepsis patients = details: cited from earlier work

Chain of human plasma kallikrein (P03952 391-638 limits assumed): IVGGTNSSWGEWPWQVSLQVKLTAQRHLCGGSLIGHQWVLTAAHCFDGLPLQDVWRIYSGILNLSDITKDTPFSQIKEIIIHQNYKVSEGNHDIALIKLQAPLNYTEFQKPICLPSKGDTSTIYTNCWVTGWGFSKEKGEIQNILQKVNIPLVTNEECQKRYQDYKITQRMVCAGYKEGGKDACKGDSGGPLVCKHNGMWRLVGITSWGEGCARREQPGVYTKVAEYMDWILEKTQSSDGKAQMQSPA
Chain of human plasma kallikrein (P03952 20-390 partner limits assumed): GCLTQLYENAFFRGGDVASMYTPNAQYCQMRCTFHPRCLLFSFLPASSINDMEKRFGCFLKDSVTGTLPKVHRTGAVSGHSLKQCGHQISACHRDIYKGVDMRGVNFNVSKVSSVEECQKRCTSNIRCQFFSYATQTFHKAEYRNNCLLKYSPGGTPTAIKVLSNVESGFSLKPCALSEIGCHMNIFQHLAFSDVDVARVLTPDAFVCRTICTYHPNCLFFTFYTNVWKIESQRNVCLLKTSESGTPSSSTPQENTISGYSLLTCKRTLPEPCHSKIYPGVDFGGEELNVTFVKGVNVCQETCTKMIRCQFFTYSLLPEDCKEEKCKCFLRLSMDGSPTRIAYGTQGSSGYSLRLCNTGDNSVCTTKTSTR

Q: Which “treating HAE” value [1] does the source give for NC(N)=NCCC[C@@H](N)C(=O)N[C@@H](CCCN=C(N)N)C(=O)N1CCC[C@H]1C(=O)N1C[C@H](O)C[C@H]1C(=O)NCC(=O)N[C@@H](Cc1cccs1)C(=O)N[C@@H](CO)C(=O)N1Cc2ccccc2C[C@@H]1C(=O)N1[C@H](C(=O)N[C@@H](CCCN=C(N)N)C(=O)O)C[C@@H]2CCCC[C@@H]21 [Icatibant] here?
A: effective

Q: Which “inhibition of human plasma kallikrein activity” value (human plasma kallikrein) does the source give for N#Cc1cccc([C@@H](NCC2CC2)c2ccc(F)c(NC(=O)c3cc(C(F)(F)F)nn3-c3cccc(CN)c3)c2)c1 [Compound I] here?
A: potent inhibitor

Q: For Cl.NCC1CCC(C(=O)N[C@@H](Cc2ccccc2)C(=O)Nc2ccc(CC(=O)O)cc2)CC1 (stereo partly shown) [PKSI-527], which joint swelling (rat models of arthritis) is on record?
A: reduce

B1: C1-inhibitor: physiological inhibitor of kallikrein in human plasma (protein, UniProt P05155 23-500, looked up)
Plasma protease C1 inhibitor: NPNATSSSSQDPESLQDRGEGKVATTVISKMLFVEPILEVSSLPTTNSTTNSATKITANTTDEPTTQPTTEPTTQPTIQPTQPTTQLPTDSPTQPTTGSFCPGPVTLCSDLESHSTEAVLGDALVDFSLKLYHAFSAMKKVETNMAFSPFSIASLLTQVLLGAGENTKTNLESILSYPKDFTCVHQALKGFTTKGVTSVSQIFHSPDLAIRDTFVNASRTLYSSSPRVLSNNSDANLELINTWVAKNTNNKISRLLDSLPSDTRLVLLNAIYLSAKWKTTFDPKKTRMEPFHFKNSVIKVPMMNSKKYPVAHFIDQTLKAKVGQLQLSHNLSLVILVPQNLKHRLEDMEQALSPSVFKAIMEKLEMSKFQPTLLTLPRIKVTTSQDMLSIMEKLEFFDFSYDLNLCGLTEDPDLQVSAMQHQTVLELTETGVEAAAASAISVARTLLVFEVQQPFLFVLWDQQHKFPVFMGRVYDPRA
Q: For B1, which infarct size [2] is on record?
A: reduced

Q: What about the lesions [3] of the same molecule?
A: reduce

Q: And the “vascular permeability in multiple organs” value [3]?
A: reduce

Q: And the “clinical outcome in sepsis patients” value (sepsis patients)?
A: Clinical improvement
